According to US6589750B2, “Therapeutic use of the SMR1 protein, the SMR1 maturation products, specifically the QHNPR pentapeptide as well as its biologically active derivatives” (Institut Pasteur, priority 1997, dated 2003):
Square brackets hold non-standard residues; d marks the D form. Ends that are not written are not given here. pGlu = O=C1CC[C@@H](C(=O)O)N1

Experiments:
[1] = rat, in vivo
Description: Labeled compound i.e. 6.66 MBq, 3 nmoles or 2 mg for whole body autoradiography (WBA) and 370-555 KBq, 170-250 pmoles or 110-160 ng for the pharmacokinetic and cellular-site distribution studies was diluted in 100-200 ml of phosphate-buffered saline (PBS Dulbecco's, Bio Media, France) and administered intravenously into the jugular vein of anesthetized rats (halothan for WBA or pentobarbital for all the other experiments).
The five week-old rats were sacrificed under halothane, at 90 sec., 3, 60 and 240 min. after i.v. injection of 3 nmoles (6.66 MBq or 2 μg) of tritiated pentapeptide. At the selected time, the restrained animal was immediately immersed in a −80° C. mixture of dry ice and isopentane, to prevent artefactual tracer redistribution. After 48 hours in self-sealing plastic stored at −30° C., the animal was then blocked in mounting medium. Whole body sagittal sections (20 mm) of the frozen rat were made at −30° C. with a cryostat (whole body slicing microtome Leitz 400 with a chest mobil freezer Leitz O M, Leica, France). […]
The quantitative determination of the radioactivity in various organ sections was carried out by using a gaseous detector of β-particles, which has recently been developed (Charpak et al., 1989; Tribollet et al., 1991). […] The number of counts per pixel was recorded in the β imager 2200 (Biospace, France) with a surface detector of 20×20 cm^2, followed by computer-assisted image analysis with the β Vision program using a HP Vectra computer. The tritium activity was determined as counts/mm^2. The linearity of this method of detection allowed measurement of the non specific binding of ^3H-pentapeptide, measured in various structures or compartments within the section with apparent non binding sites for the peptide (background tissues, e.g. muscle and cardiac blood except brain and spinal cord) or in the same labeled structure, in displacement experiments. […]
Assessment of tissue peptide targeting was accomplished by a β-radio imager quantification (FIG. 2). […]

[2] = tested on: pentapeptide binding sites; assay: Cellular localization of 3H-pentapeptide binding sites by light microscopic autoradiography, in vivo radiolabeling; design: species or system rat
Description: The cellular-site localization for physiological concentrations of labeled pentapeptide was investigated by paraffin- or resin-section microscopic autoradiography procedure.
Sixty minutes after ^3H-pentapeptide (555 KBq, 160 ng or 250 pmoles) i.v. administration, the anesthetized male rats were perfused via the jugular veins with ice-cold Krebs Ringer Bicarbonate Glucosed buffer and then 0.5% paraformaldehyde/0.5% glutaraldehyde fixative PBS buffer (plus glucose 1.6%, CaCl2 0.002% and DMSO 1%) (50 ml/5 min. for each). Tissues were rapidly removed and harvested for paraffin sectioning (Paraplast plus-Sherwood medical, OSI, France) or for resin sectioning (histo-resin Leica, France). All sections were cut at 5 microns (Reichert Jung for paraffin and RM2155 Leica for resin sections) and mounted on Superfrost/Plus glass slides (non gelatin-coated). Paraffin was removed with xylene, and sections were carried through a descending, then an ascending ethanol series (from 100 to 50%, VN and reverse). Dried sections were then processed for light microscope autoradiography by attaching nuclear emulsion-coated (Kodak, NTB2, diluted 1:1 with distilled water) coverslips to them. After air drying for 2 hrs at room temperature the autoradiographs were exposed for 6 to 10 weeks in light-tight boxes at 4° C. Radiosensitive coverslips were developed in Kodak D19 (3 min.) developer and fixed in Kodak fixer (3 min.) Sections were counterstained with Harris' hematoxylin (Prolabo, France) and Toluidine blue (Sigma, France), dehydrated and mounted in Eukitt medium. The tissue and overlying silver grains were viewed and photographed with a Leica photomicroscope equipped with bright-field optics (DMRD Leitz, Leica).

[3] = Chromatographic characterization of radioactive peptide uptake by tissues (methanol extraction, RP-HPLC); assay type: in vivo, rat
Description: The chromatographic characteristics of the labeled compound associated, in vivo, to target organs were assessed by HPLC.
At selected time points (2 and 180 min.) after administration of tritiated pentapeptide, the anesthetized rats were sacrificed (cardiac blood puncture) and tissues quickly removed on ice. The tissues were immediately homogenized at 4° C. in 5-10 volumes of 0.1 M chlorhydric acid using a potter homogenizer (demineralization of bone tissue was realized after 24-48 h at 4° C. in guanidium hydrochloride and EDTA pretreatment, 4 M and 0.25 M final concentration, respectively). Homogenates were centrifuged for 30 min. at 4° C. and 15,000 g. To determine total radioactivity, aliquots of the supernatant solution were added to 50 volumes of Biofluor (NEN, Dupont de Nemours, France) and counted in a liquid scintillation counter.
To determine the radioactivity in the pentapeptide fraction, aliquots of the tissue extracts were submitted to a methanol-extraction procedure (Rougeot et al., 1994) after neutralization with Tris/HCl pH 8.5 containing 16 mM DTPA (DiethyleneTriaminePenta-Acetic acid, Sigma, France). The methanol phase was removed from the supernatant by partial evaporation, then lyophilization and the reconstituted aqueous phase containing 16 mM DTPA was applied to ODS AQ column (HPLC RP C18 chromatography) (AIT, France). Elution with a linear gradient of 0.1% trifluoro acetic (TFA) in water/0.1% TFA in acetonitrile (Merck, France) from 100/0 (vol/vol) to 50/50 (vol/vol) was performed for 30 min. at a flow rate of 1 ml/min. Fractions were collected every 60 sec. and analyzed for radioactivity using a liquid scintillation counter.

[4] = Pentapeptide metabolic and pharmacokinetic study after i.v. bolus of tritiated pentapeptide; assay type: in vivo, rat
Description: The in vivo time course of distribution, metabolism and elimination of the pentapeptide was investigated in anesthetized adult male rats using physiological concentrations of circulating tritiated pentapeptide.
Anesthetized male rats were given a bolus intravenous injection of 170 pmoles or 110 ng tritiated pentapeptide diluted in 100 μl PBS Dulbecco's. Blood was collected in tubes containing a mixture of peptidase inhibitors described above, via a silastic catheter implanted into the external jugular vein. Blood was withdrawn just before and 2, 4, 6, 8, 10, 20, 30, 45, 60, 90 and 120 min. after peptide administration. Two milliliters of blood per rat were taken in all and the entire urinary bladder content was collected at a last selected point.
The biological samples were submitted to centrifugation and Parapak Q extraction conditions, as described above. Chromatrography using HPLC procedure described above and in the reference (Rougeot et al., 1994) was then applied to each extracted sample. The ODS AQ RP-C18 was used for identification of amino-terminal metabolites and Pep RPC HR C18 (Pharmacia, France) for identification of carboxyl-terminal metabolites. The radioactivity content of samples before and after chromatographic separations was determined using a beta counter (Kontron, MR300).

[5] = tested on: peptide binding sites; assay: In vivo displacement experiments with coinjection of 100-fold excess of unlabeled peptide; design: species or system rat
Description: Biological receptor sites have two essential characteristics that allow specific binding to be identified, in vivo; they have a high affinity for the ligand and the binding is saturable (Whitcomb et al., 1993). Therefore, displacement experiments, using parallel systemic administration of an excess of the corresponding unlabeled peptide has been performed. Furthermore, the specific cellular localization of labeled pentapeptide to target tissues has been identified by section microscopic autoradiography.
The tritium activity was determined as counts/mm^2.
In the case of radioactive quantification of organ sections or acid extracts, using a liquid scintillation counter (MR300 Kontron), the tritium activity was determined as cpm/mg protein. Protein concentration was determined by the Bradford method (Bradford et al., 1976).

[6] = target: anti-pentapeptide serum; assay: competitive liquid phase RIA, unlabelled standard displaces 125I-labelled pentapeptide from the antiserum
[7] = 180 min after injection, DTPA extraction
[8] = 60 min, 100-fold excess unlabeled peptide

## QHNPR (not fully specified (residue 4)) [pentapeptide, final secretory maturation product of SMR1; used tritiated as (Glp1/Gln1)-His-Asn-(3,4 3H)Pro-Arg]
[1]
  persistence of label within target tissues: > 240 min
  radioactivity in intestinal content: No radioactivity was found in the intestinal content
  tissue to blood ratio: ~2
[2]; 60 min post-injection
  cellular localization of label in submandibular tissue: no selective cell association of label was identifiable
  cellular localization of silver grains in glandular gastric mucosa: over the chief or peptic cells
  cellular localization of silver grains in pancreatic tissue: over the cells of acini
  localization of silver grains in upper incisor root: over the entire dentin layer
[2]; 60 min post-injection of physiological concentration (160 ng)
  cellular localization of silver grains in kidney: over the epithelial cells of the S3 segment of the straight portion of the proximal tubules
[3]; 5-20 min survival time after 3 nmoles 3H-pentapeptide
  tissue radioactivity extracted from acid homogenates by methanol: 72±4%
[3]; 180 min after injection
  radioactive peptide fraction extracted by methanol with DTPA (16 mM): 53±9%
[3]; [7]
  radioactive extract representing metabolites: 8±6%
  radioactive extract representing undissociated peptide complex: 29±14%
[3]; 180 min after injection, DTPA extraction, target organs
  radioactivity recovered in RP-HPLC peak of free pentapeptide: 52±8%
[4]; anesthetized rats, over a 60 min period, 170 pmoles injected
  radioactivity eliminated through glomerular filtration: 6 pmol
[4]; male rat
  distribution volume: 35-40 ml/100 g. body weight
[4]; plasma, dissociated by acidic pH treatment
  pentapeptide-binding substance complex as share of circulating peptide fraction: approximately 45%
[4]; single i.v. injection of 110 ng tritiated pentapeptide
  time from which plasma concentration is close to basal level: 30 min
[4]; single i.v. injection of 110 ng tritiated pentapeptide, two male rats
  time to maximal plasma level: ≤ 2 min
[4]; urinary bladder content
  urine radioactivity that is pentapeptide metabolites: Approximately 80%
[4]; within 4 min, proteolysis from the amino-terminal part
  infused pentapeptide metabolized in the bloodstream: 35%
[5]; [8]
  specific labeling percentage, glandular mucosa of the stomach: 38-61%
  specific labeling percentage, long bone: 29-38%
  specific labeling percentage, pancreatic lobules: 37-55%
  specific labeling percentage, submandibular lobules: 51-91%
[5]; 60 min post-coinjection of 100-fold excess of unlabeled peptide
  displacement of 3H-pentapeptide uptake within the renal outer medullary: almost complete displacement
[5]; FIG. 8-B, depends on analysis method (total tissue count or regional analysis)
  specific labeling percentage, kidney: 12 to 92%

## [pGlu]HNPR [[Glp^1] pentapeptide]
[6]
  50% displacement of the 125I-labelled pentapeptide: < 570 fmol
  detection limit (80% binding): 106 fmol

## QHNPR [[Gln^1] pentapeptide]
[6]
  50% displacement of the 125I-labelled pentapeptide: < 570 fmol
  detection limit (80% binding): 106 fmol
